The target of assay [1] is Cry1Aa toxin-binding region of Bombyx mori cadherin-like receptor BtR175 (BtR175-TBR) (Bombyx mori) (UniProt Q9XY09). Description: SPR; BtR175-TBR immobilized on a CM5 chip by amine coupling (Biacore J); four concentrations of toxin in PBST (0.005% Tween, pH 7.4) for 120 sec, dissociation 240 sec; 1:1 Langmuir model, global fitting; KD = kd/ka.
The target in assay [2] is wild-type Cry1Aa toxin (trypsin-activated) (B. thuringiensis subsp. kurstaki strain …, UniProt P0A366 1-1176, Trypsin-activated toxin core, unmutated wild type. Limits are not printed: the N-terminus at Ile29 follows the conventional trypsin cut after Arg28 (and the IETGYTP start in the phage-display primer),). Described as above. To be noted: both partners purified.

Five molecules from article PMC4287183, “Affinity maturation of Cry1Aa toxin to the Bombyx mori cadherin-like receptor by directed evolution based on phage display and biopanning selections of domain II loop 2 mutant toxins” (MicrobiologyOpen, 2014) can be followed below.

The term Kd denotes the constant that tells how readily two partners part at equilibrium. High values mean lower affinity, low ones higher affinity. In general, koff refers to the first-order rate constant of dissociation. Higher therefore signals fast dissociation. For the molecule “Cry1Aa domain II loop 2 mutant toxin 371PHRP374 (trypsin-activated) (from UniProt P0A366 1-1176) (ligand)”, in assay [1], the Kd is 8.3 nM and the koff came to 0.00122 s⁻¹.

For “Cry1Aa domain II loop 2 mutant toxin 371WGLA374 (trypsin-activated) (from UniProt P0A366 1-1176) (ligand)”, in assay [1], the Kd is 1.56 nM and the koff stood at 0.00061 s⁻¹.

In assay [1], “Cry1Aa domain II loop 2 mutant toxin 371WPHH374 (trypsin-activated) (from UniProt P0A366 1-1176) (ligand)” came in with a Kd of 1.55 nM and a koff of 0.00066 s⁻¹.

“Cry1Aa domain II loop 2 mutant toxin 371WRPQ374 (trypsin-activated) (from UniProt P0A366 1-1176) (ligand)”: in assay [1], the equilibrium dissociation constant (Kd) was 0.5 nM and the koff was determined as 0.00102 s⁻¹.

B1: Cry1Aa toxin-binding region of Bombyx mori cadherin-like receptor BtR175 (BtR175-TBR) (domain or fragment)
chain: ELVIRPYNFHAPVFVFPKHGATLRLARERAVVNGLLATVDGEFLNRIVATDEDGLHAGQVAFEVVGDTEAVDYFHIVNDGENSGTLMLKQLFPEDIREFEVTIRATDGGTEPRPLSTDCTFSVVFVPIQGEPIFPTSTHTVAFIEKEAGLLERHELPRAEDRKNHLCSDDCHNIYYRIIDGNNDGHFGLDETTNVLFLVKELDRSVSETYTLTIAASNSPTGGIALTSTITITVNVREADPQPYFVRDLYTAGISTSDSINRELLILQATHSENAPIIYTIDWSTMVTDPTLASVRETAFILNPHTGVLTLNIQPTASMHGMFEFQVVATDPAGYSDRANVKIYLISTRNRVFFLFV
notes: The limits are stated for the GST fusion used in biopanning; also called GST-BtR175-TBR; source: prepared as described previously (Fujii et al. 2013); GST-BtR175-TBR from pGEX4t-3, harvested as inclusion bodies and solubilized
In assay [2], B1 returned a Kd of 25 nM and a koff of 0.00267 s⁻¹.
